Numbered stars: 1 amine (or outer) side, 2 acyl side, 3 side chain; on linkers, the order of the positions; unused ones are H or OH. Bridge positions count the residues as written; N and C are the ends. Square brackets hold non-standard residues; d marks the D form. Side chains are listed from the residue outwards. Ends that are not written are not given here. * marks the point of attachment. C20 diacid = O=C(O)CCCCCCCCCCCCCCCCCCC(=O)*; γGlu = O=C(O)[C@H](CCC(=O)[*:2])N[*:1]
T1: human calcitonin receptor (human, UniProt P30988 25-474)
T1 construct: whole, on cells; Membranes of BHK cells stably transfected with the human calcitonin receptor (Assay VII); also called hCTR; hCT
T1 sequence (looked up): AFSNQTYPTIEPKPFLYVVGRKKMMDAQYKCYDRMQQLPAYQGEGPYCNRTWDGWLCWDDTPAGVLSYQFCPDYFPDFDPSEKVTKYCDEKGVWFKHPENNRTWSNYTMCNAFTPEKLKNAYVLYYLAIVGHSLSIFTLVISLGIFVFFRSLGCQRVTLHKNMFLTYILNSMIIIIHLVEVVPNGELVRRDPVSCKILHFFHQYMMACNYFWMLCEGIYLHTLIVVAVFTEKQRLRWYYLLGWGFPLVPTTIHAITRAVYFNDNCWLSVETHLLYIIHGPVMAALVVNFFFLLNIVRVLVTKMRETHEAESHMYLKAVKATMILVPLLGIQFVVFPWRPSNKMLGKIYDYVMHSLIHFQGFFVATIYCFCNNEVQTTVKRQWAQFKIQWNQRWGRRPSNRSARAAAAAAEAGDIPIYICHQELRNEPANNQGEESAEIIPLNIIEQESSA

B1: N^-1-[(4S)-4-carboxy-4-(19-carboxynonadecanoylamino)butanoyl]-Gly[Arg1,His14,Arg17,Pro21,Pro27,His34]-h-amylin (peptide)
peptide: {C20 diacid-γGlu}-GRCNTATCATQRLAHFLRHSSPNFGAIPSSTNVGHNTY-NH2
modifications: disulfide 3-8
SMILES: CC[C@H](C)[C@H](NC(=O)[C@H](C)NC(=O)CNC(=O)[C@H](Cc1ccccc1)NC(=O)[C@H](CC(N)=O)NC(=O)[C@@H]1CCCN1C(=O)[C@H](CO)NC(=O)[C@H](CO)NC(=O)[C@H](Cc1c[nH]cn1)NC(=O)[C@H](CCCNC(=N)N)NC(=O)[C@H](CC(C)C)NC(=O)[C@H](Cc1ccccc1)NC(=O)[C@H](Cc1c[nH]cn1)NC(=O)[C@H](C)NC(=O)[C@H](CC(C)C)NC(=O)[C@H](CCCNC(=N)N)NC(=O)[C@H](CCC(N)=O)NC(=O)[C@@H](NC(=O)[C@H](C)NC(=O)[C@@H]1CSSC[C@H](NC(=O)[C@H](CCCNC(=N)N)NC(=O)CNC(=O)CC[C@H](NC(=O)CCCCCCCCCCCCCCCCCCC(=O)O)C(=O)O)C(=O)N[C@@H](CC(N)=O)C(=O)N[C@@H]([C@@H](C)O)C(=O)N[C@@H](C)C(=O)N[C@@H]([C@@H](C)O)C(=O)N1)[C@@H](C)O)C(=O)N1CCC[C@H]1C(=O)N[C@@H](CO)C(=O)N[C@@H](CO)C(=O)N[C@H](C(=O)N[C@@H](CC(N)=O)C(=O)N[C@H](C(=O)NCC(=O)N[C@@H](Cc1c[nH]cn1)C(=O)N[C@@H](CC(N)=O)C(=O)N[C@H](C(=O)N[C@@H](Cc1ccc(O)cc1)C(N)=O)[C@@H](C)O)C(C)C)[C@@H](C)O
notes: also called compound 100
B2: N^-1-[(4S)-4-carboxy-4-(19-carboxynonadecanoylamino)butanoyl]-Gly[Arg1,Ala14,Arg17,Pro21,Pro27,His34]-h-amylin (peptide)
peptide: {C20 diacid-γGlu}-GRCNTATCATQRLAAFLRHSSPNFGAIPSSTNVGHNTY-NH2
modifications: disulfide 3-8
SMILES: CC[C@H](C)[C@H](NC(=O)[C@H](C)NC(=O)CNC(=O)[C@H](Cc1ccccc1)NC(=O)[C@H](CC(N)=O)NC(=O)[C@@H]1CCCN1C(=O)[C@H](CO)NC(=O)[C@H](CO)NC(=O)[C@H](Cc1c[nH]cn1)NC(=O)[C@H](CCCNC(=N)N)NC(=O)[C@H](CC(C)C)NC(=O)[C@H](Cc1ccccc1)NC(=O)[C@H](C)NC(=O)[C@H](C)NC(=O)[C@H](CC(C)C)NC(=O)[C@H](CCCNC(=N)N)NC(=O)[C@H](CCC(N)=O)NC(=O)[C@@H](NC(=O)[C@H](C)NC(=O)[C@@H]1CSSC[C@H](NC(=O)[C@H](CCCNC(=N)N)NC(=O)CNC(=O)CC[C@H](NC(=O)CCCCCCCCCCCCCCCCCCC(=O)O)C(=O)O)C(=O)N[C@@H](CC(N)=O)C(=O)N[C@@H]([C@@H](C)O)C(=O)N[C@@H](C)C(=O)N[C@@H]([C@@H](C)O)C(=O)N1)[C@@H](C)O)C(=O)N1CCC[C@H]1C(=O)N[C@@H](CO)C(=O)N[C@@H](CO)C(=O)N[C@H](C(=O)N[C@@H](CC(N)=O)C(=O)N[C@H](C(=O)NCC(=O)N[C@@H](Cc1c[nH]cn1)C(=O)N[C@@H](CC(N)=O)C(=O)N[C@H](C(=O)N[C@@H](Cc1ccc(O)cc1)C(N)=O)[C@@H](C)O)C(C)C)[C@@H](C)O
B3: N^-1-[(4S)-4-carboxy-4-(19-carboxynonadecanoylamino)butanoyl]-Gly[Arg1,His14,Arg17,Pro21,Pro27,Pro34]-h-amylin (peptide)
peptide: {C20 diacid-γGlu}-GRCNTATCATQRLAHFLRHSSPNFGAIPSSTNVGPNTY-NH2
modifications: disulfide 3-8
SMILES: CC[C@H](C)[C@H](NC(=O)[C@H](C)NC(=O)CNC(=O)[C@H](Cc1ccccc1)NC(=O)[C@H](CC(N)=O)NC(=O)[C@@H]1CCCN1C(=O)[C@H](CO)NC(=O)[C@H](CO)NC(=O)[C@H](Cc1c[nH]cn1)NC(=O)[C@H](CCCNC(=N)N)NC(=O)[C@H](CC(C)C)NC(=O)[C@H](Cc1ccccc1)NC(=O)[C@H](Cc1c[nH]cn1)NC(=O)[C@H](C)NC(=O)[C@H](CC(C)C)NC(=O)[C@H](CCCNC(=N)N)NC(=O)[C@H](CCC(N)=O)NC(=O)[C@@H](NC(=O)[C@H](C)NC(=O)[C@@H]1CSSC[C@H](NC(=O)[C@H](CCCNC(=N)N)NC(=O)CNC(=O)CC[C@H](NC(=O)CCCCCCCCCCCCCCCCCCC(=O)O)C(=O)O)C(=O)N[C@@H](CC(N)=O)C(=O)N[C@@H]([C@@H](C)O)C(=O)N[C@@H](C)C(=O)N[C@@H]([C@@H](C)O)C(=O)N1)[C@@H](C)O)C(=O)N1CCC[C@H]1C(=O)N[C@@H](CO)C(=O)N[C@@H](CO)C(=O)N[C@H](C(=O)N[C@@H](CC(N)=O)C(=O)N[C@H](C(=O)NCC(=O)N1CCC[C@H]1C(=O)N[C@@H](CC(N)=O)C(=O)N[C@H](C(=O)N[C@@H](Cc1ccc(O)cc1)C(N)=O)[C@@H](C)O)C(C)C)[C@@H](C)O
B4: N^ε1-[(4S)-4-carboxy-4-[[(4S)-4-carboxy-4-(19-carboxynonadecanoylamino)butanoyl]amino]butanoyl]-[D-Asp14,Arg17,Pro21,Pro27,Arg35]-h-amylin (peptide)
peptide: K([γGlu-γGlu-C20 diacid])CNTATCATQRLA[dD]FLRHSSPNFGAIPSSTNVGSRTY-NH2
modifications: disulfide 2-7; N-terminus assumed
SMILES: CC[C@H](C)[C@H](NC(=O)[C@H](C)NC(=O)CNC(=O)[C@H](Cc1ccccc1)NC(=O)[C@H](CC(N)=O)NC(=O)[C@@H]1CCCN1C(=O)[C@H](CO)NC(=O)[C@H](CO)NC(=O)[C@H](Cc1c[nH]cn1)NC(=O)[C@H](CCCNC(=N)N)NC(=O)[C@H](CC(C)C)NC(=O)[C@H](Cc1ccccc1)NC(=O)[C@@H](CC(=O)O)NC(=O)[C@H](C)NC(=O)[C@H](CC(C)C)NC(=O)[C@H](CCCNC(=N)N)NC(=O)[C@H](CCC(N)=O)NC(=O)[C@@H](NC(=O)[C@H](C)NC(=O)[C@@H]1CSSC[C@H](NC(=O)[C@@H](N)CCCCNC(=O)CC[C@H](NC(=O)CC[C@H](NC(=O)CCCCCCCCCCCCCCCCCCC(=O)O)C(=O)O)C(=O)O)C(=O)N[C@@H](CC(N)=O)C(=O)N[C@@H]([C@@H](C)O)C(=O)N[C@@H](C)C(=O)N[C@@H]([C@@H](C)O)C(=O)N1)[C@@H](C)O)C(=O)N1CCC[C@H]1C(=O)N[C@@H](CO)C(=O)N[C@@H](CO)C(=O)N[C@H](C(=O)N[C@@H](CC(N)=O)C(=O)N[C@H](C(=O)NCC(=O)N[C@@H](CO)C(=O)N[C@@H](CCCNC(=N)N)C(=O)N[C@H](C(=O)N[C@@H](Cc1ccc(O)cc1)C(N)=O)[C@@H](C)O)C(C)C)[C@@H](C)O
notes: Residue 14 is D-aspartic acid (printed 14d)

Biological target: T1, human calcitonin receptor
Test: ratio of IC50 at hCTR over IC50 at hAmylin-R (SPA competition assays)
Experimental: The resulting pellet was resuspended, homogenized and centrifuged (20.000 rpm, 15 min) in a buffer containing 20 mM Na-HEPES and 0.1 mM EDTA (pH 7.4, buffer 2). The resulting pellet was resuspended in buffer 2 and protein concentration was measured (BCA protein Assay, Pierce). The homogenate was kept cold during the whole procedure. The membranes were kept at −80° C. until use. The assay was performed in a 384 well Optiplate (PerkinElmer) in a total volume of 40 ul. Membranes were mixed with SPA beads. Final concentration of membranes 35 ng/μL final and SPA beads was 0.05 mg/well. Test-compounds were dissolved in DMSO and further diluted in assay buffer (50 mM Hepes, pH 7.4, 1 mM CaCl2, 5 mM MgCl₂, 0.1% OA and 0.02% Tween20). […] The final mixture was incubated with shaking at 400 rpm for 120 min at 25° C. prior to centrifugation (1500 rpm, 10 min). Samples were analyzed on TopCounter™ (Packard). The IC₅₀ was calculated using (one site binding competition analysis) GraphPad Prism5 as a measure of receptor affinity.
Membranes were prepared in the following way; the cells were rinsed with PBS and incubated with Versene for approximately 5 min before harvesting. The cells were flushed with PBS and the cell-suspension was centrifuged for 5 min at 1000 rpm. Cells were homogenized (Ultrathurrax) in a buffer containing 20 mM Na-HEPES and 10 mM EDTA (pH 7.4) and centrifuged at 20.000 rpm for 15 min. The resulting pellet was resuspended, homogenized and centrifuged (20.000 rpm, 15 min) in a buffer containing 20 mM Na-HEPES and 0.1 mM EDTA (pH 7.4, buffer 2). The resulting pellet was resuspended in buffer 2 and protein concentration was measured (BCA protein Assay, Pierce). The homogenate was kept cold during the whole procedure. The membranes were kept at −80° C. until use. Assay was performed in a 384 well Optiplate (PerkinElmer) in a total volume of 40 ul. Membranes were mixed with SPA beads.

| Binder | Ratio hCT/hAmylin binding |
| --- | --- |
| B1 | 65.3 |
| B2 | 68.6 |
| {C20 diacid-γGlu}-GRCNTATCATQRLAAFLRHSSPNFGAIPSSTNVGPNTY-NH2 (disulfide 3-8) | 26.5 |
| B3 | 36.2 |

Biological target: T1, human calcitonin receptor
Test: SPA competition against 125I-calcitonin, membranes of BHK cells with human calcitonin receptor (Assay VII)
Experimental: Membranes were prepared in the following way; the cells were rinsed with PBS and incubated with Versene for approximately 5 min before harvesting. The cells were flushed with PBS and the cell-suspension was centrifuged for 5 min at 1000 rpm. Cells were homogenized (Ultrathurrax) in a buffer containing 20 mM Na-HEPES and 10 mM EDTA (pH 7.4) and centrifuged at 20.000 rpm for 15 min. The resulting pellet was resuspended, homogenized and centrifuged (20.000 rpm, 15 min) in a buffer containing 20 mM Na-HEPES and 0.1 mM EDTA (pH 7.4, buffer 2). The resulting pellet was resuspended in buffer 2 and protein concentration was measured (BCA protein Assay, Pierce). The homogenate was kept cold during the whole procedure. The membranes were kept at −80° C. until use. Assay was performed in a 384 well Optiplate (PerkinElmer) in a total volume of 40 ul. Membranes were mixed with SPA beads. Final concentration of membranes 35 ng/μL final and Final concentration of SPA beads was 0.05 mg/well. Test-compounds were dissolved in DMSO and further diluted in assay buffer (50 mM Hepes, pH 7.4, 1 mM CaCl2, 5 mM MgCl₂, 0.1% OA and 0.02% Tween20). […] The final mixture was incubated for 120 min with shaking at 400 rpm at 25° C. prior to centrifugation (1500 rpm, 10 min). Samples were analyzed on TopCounter™ (Packard). The […] was calculated using (one site binding competition analysis) GraphPad Prism5 as a measure of receptor affinity.

| Binder | IC50 [nM] |
| --- | --- |
| B4 | 112 |
| B1 | 66.3 |
| B2 | 29.2 |
| {C20 diacid-γGlu}-GRCNTATCATQRLAAFLRHSSPNFGAIPSSTNVGPNTY-NH2 (disulfide 3-8) | 3 |
| B3 | 7.87 |

Reference: patent US20140087995A1 (published 2014)
